Here are results for 2 molecules from patent US20100135991A1 (published 2010).

Test [1] has as its target T1, human ORP150-3x Flag with deletion of amino acids 723-732 (human, UniProt Q9Y4L1 33-999).
T1 sequence: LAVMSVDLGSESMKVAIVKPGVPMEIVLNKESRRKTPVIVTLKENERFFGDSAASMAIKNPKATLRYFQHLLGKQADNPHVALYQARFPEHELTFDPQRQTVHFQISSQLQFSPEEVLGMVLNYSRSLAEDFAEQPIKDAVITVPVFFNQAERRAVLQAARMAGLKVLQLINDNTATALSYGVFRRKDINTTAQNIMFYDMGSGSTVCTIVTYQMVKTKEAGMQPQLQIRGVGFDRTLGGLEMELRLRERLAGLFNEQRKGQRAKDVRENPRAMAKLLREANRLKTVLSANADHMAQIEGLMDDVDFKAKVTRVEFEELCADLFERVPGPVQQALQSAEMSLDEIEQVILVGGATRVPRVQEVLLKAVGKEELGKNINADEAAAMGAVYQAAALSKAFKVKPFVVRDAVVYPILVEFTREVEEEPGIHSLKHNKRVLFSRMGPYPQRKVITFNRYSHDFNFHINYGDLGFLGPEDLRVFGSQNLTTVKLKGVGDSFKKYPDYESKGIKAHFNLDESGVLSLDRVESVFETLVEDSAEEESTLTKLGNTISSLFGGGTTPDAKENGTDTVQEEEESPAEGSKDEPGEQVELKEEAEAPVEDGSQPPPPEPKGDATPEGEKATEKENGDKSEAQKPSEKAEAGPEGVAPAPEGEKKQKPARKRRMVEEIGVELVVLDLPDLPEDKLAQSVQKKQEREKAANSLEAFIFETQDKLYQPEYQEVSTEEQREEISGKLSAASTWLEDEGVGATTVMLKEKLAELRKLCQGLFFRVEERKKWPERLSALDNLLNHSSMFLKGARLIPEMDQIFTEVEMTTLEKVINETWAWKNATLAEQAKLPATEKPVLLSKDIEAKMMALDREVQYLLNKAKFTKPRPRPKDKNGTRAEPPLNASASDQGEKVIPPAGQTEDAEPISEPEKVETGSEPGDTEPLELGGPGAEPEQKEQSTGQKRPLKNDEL
Put plainly: anti-FLAG capture ELISA and Western blot. As for the experimental part:
(§1) Binding of 5F4 to the ORP150 wild type or mutant proteins generated from the supernatant of the transfected cells were tested using ELISA assay by coating the surface with anti-FLAG antibody, allowing binding of the ORP150 proteins in the supernatant to the anti-FLAG antibody, and detecting binding of 5F4 to the ORP150 proteins.
(§2) Binding of 5F4 to the wild type or the mutant ORP150 proteins from the supernatant and cell lysates was also tested using Western blot assays by immunoprecipitation the ORP150 proteins from the supernatant or cell lysates using anti-FLAG antibody, and detecting binding of 5F4 to the ORP150 proteins on the Western blot. The anti-Flag M2 affinity gel (Sigma, Cat. No. A2220) was used to immuno-precipitate the recombinant human ORP150 from the supernatant and cell lysates of the transfected cells. The IP products were subjected to SDS-PAGE and then transferred onto nitrocellulose membrane for Western blotting. […] The blotting signal was detected with Immobilon Western-Chemiluminescent HRP Substrate kits (Millipore, Cat. No. WBKLS0500)
(§3) Based on the Western blotting with anti-FLAG antibody, all the deletion mutants of hORP150 were successfully expressed in Flp-In™ CHO Cells. […] To further characterize the epitope, additional mutant ORP150 proteins were generated. […]
On the technique in general: An ELISA detects its analyte on a solid surface through an enzyme-linked reagent.

Test [2] concerns the target T2, human ORP150-3x Flag with deletion of amino acids 673-752 (human, UniProt Q9Y4L1 33-999).
T2 construct: Deletion mutant made by overlapping PCR, expressed in Flp-In CHO cells
T2 sequence: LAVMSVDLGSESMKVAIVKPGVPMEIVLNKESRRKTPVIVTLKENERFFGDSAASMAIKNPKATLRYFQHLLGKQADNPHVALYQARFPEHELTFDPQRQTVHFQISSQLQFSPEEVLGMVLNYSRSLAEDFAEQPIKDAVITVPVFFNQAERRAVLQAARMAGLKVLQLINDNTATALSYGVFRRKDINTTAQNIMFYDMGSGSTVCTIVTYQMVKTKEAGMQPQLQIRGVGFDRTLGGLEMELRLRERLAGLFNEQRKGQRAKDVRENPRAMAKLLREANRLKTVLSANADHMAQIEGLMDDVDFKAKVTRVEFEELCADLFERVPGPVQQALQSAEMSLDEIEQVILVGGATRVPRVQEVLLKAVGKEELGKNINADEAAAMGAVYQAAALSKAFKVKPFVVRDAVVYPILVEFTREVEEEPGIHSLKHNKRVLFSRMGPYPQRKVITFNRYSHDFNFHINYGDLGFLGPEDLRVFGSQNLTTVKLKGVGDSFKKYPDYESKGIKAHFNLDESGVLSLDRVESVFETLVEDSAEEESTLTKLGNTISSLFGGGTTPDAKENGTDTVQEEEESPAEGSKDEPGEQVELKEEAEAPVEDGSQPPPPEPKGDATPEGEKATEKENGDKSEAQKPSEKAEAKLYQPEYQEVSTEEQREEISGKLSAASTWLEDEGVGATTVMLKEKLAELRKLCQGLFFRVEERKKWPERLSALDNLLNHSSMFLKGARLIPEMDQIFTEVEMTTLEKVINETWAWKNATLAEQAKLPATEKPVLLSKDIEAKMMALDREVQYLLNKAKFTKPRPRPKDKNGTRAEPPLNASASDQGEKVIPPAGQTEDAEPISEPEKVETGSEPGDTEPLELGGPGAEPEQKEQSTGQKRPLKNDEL
As to the kind of experiment: anti-FLAG capture ELISA and Western blot. As for the experimental part:
as §1, §2, §3

Test [3] addresses T3, zinc-binding alcohol dehydrogenase domain containing 2 (UniProt Q8N4Q0 1-377, limits assumed).
T3 construct: also called unrelated protein
T3 sequence (looked up): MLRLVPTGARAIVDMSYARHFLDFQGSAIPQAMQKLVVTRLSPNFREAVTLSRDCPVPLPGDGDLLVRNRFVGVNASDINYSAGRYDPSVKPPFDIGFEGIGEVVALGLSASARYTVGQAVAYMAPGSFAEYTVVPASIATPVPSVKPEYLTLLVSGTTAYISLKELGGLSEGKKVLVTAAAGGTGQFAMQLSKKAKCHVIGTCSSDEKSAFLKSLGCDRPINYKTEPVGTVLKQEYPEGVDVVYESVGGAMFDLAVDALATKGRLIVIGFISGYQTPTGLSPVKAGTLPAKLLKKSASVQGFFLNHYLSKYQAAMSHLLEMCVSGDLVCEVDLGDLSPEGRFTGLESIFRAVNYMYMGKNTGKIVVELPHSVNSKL
As to the kind of experiment: Western blot. As for the experimental part: Western blot was performed to confirm the binding specificity of antibody 3B6.1, 6A4.28 and 9A6.2. […] The amino acid sequences of the heavy and light chain variable region of antibody 3B6.1 (IgM, K), 6A4.28 (IgM, K) and 9A6.2 (IgM, K) are shown in FIGS. 3A and 3B, 4A and 4B, and 5A and 5B, respectively.

B1: monoclonal antibody 5F4 (antibody, mouse IgM, V domains shown)
VH: QIQLVQSGPELKKPGETVKISCKASDYTFTDYSMHWVKQAPGKGLKWMGWINTETGEPTYADDFKGRFAFPLETSASTAYLQINNLKNEDTATYFCARNHGYNLAYWGQGTLVTVSA
VL: DIVMTQSQKFMSTSVGDRVSLTCKSSQNVRTAVTWYQQKPGQSPKALIYLASNRHTGVPDRFTGSGSGTDFTLTISNVQSEDLADYFCLQHWNYPLTFGGGTKLEIK
notes: Mouse IgM, kappa, from a hybridoma; also called m5F4; murine 5F4
On to B1, for which the binding result in test [1] and in test [2] was “no binding” in each case.

B2: antibody 9A6.2 (antibody, mouse IgM, V domains shown)
VH: EVKLVESGGGLVKPGGSLKLSCAASGFTFSSYAMSWVRQTPEKRLEWVASISSGGSTYYPDSVKGRFTISRDNARNILYLQMSSLRSEDTAMYYCARGRGYYAYYFDYWGQGTTLTVSS
VL: ETTVTQSPASLSVATGEKVTIRCITSTDIDDDMNWYQQKPGEPPKLLISEGNTLRPGVPSRFSSSGYGTDFVFTIENTLSEDVADYYCLQSDNMPFTFGSGTKLEIK
notes: Mouse IgM, kappa
In the case of B2, in test [3], the binding result is on record as “no binding”.
